The experiment concerns the target precursor of the polypeptide that induces IFN-γ production in immunocompetent cells (human).

As for “interleukin-1β converting enzyme (from UniProt P29466)”, the conversion of the precursor into the active polypeptide; IFN-γ content (IU/ml) induced in KG-1 cells by the reaction mixture, with Western blot time course was determined as 4000 IU/ml.

For the origin of these results see US5891663.
